This is an account of results in patent publication US20160046678A1 (ZYNGENIA, published 2016).

Ends that are not written are not given here.

This experiment deals with T1, Angiopoietin-2 (Ang2) (human, UniProt O15123 19-496, biotin label in Examples 22-24).
T1 construct: also called rhAng2; recombinant Ang2
T1 sequence (looked up): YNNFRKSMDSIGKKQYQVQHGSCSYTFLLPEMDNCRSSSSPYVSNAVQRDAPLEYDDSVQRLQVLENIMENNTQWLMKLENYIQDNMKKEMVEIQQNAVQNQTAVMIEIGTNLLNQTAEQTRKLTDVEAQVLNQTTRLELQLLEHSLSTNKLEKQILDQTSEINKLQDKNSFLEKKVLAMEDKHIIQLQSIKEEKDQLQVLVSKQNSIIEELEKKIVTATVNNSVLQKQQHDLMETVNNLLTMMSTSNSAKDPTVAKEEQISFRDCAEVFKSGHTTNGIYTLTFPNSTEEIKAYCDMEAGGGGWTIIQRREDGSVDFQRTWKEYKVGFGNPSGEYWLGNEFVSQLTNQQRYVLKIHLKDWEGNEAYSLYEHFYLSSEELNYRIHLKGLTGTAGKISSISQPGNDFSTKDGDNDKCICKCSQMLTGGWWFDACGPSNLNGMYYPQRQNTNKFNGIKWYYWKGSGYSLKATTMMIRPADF
The experiment is described as follows: ELISA, MRD-MBP fusions on rhAng2-coated wells; references L17D and Lm32 KtoS MBP fusions. (In general: An ELISA detects its analyte on a solid surface through an enzyme-linked reagent.)

B1: 2xLm32 MRD-MBP fusion (other)
chain: MGAQTNFMPMDNDELLLYEQFILQQGLEGGSGSTASSGSGSSLGAQTNFMPMDNDELLLY
modifications: also: fused to maltose binding protein, MRD downstream of malE, two copies of Lm32
notes: also called Lm32 dimer; LM-2x-32; not shown: MRD inserted downstream of malE
For the molecule B1, the fold higher affinity is more than 10 fold.
